The source of these data is patent publication US20170037092A1.

The target in this test is HLA-A*02:01 (human). The experiment in a line: UV-ligand exchange ELISA.

For SLTETIEGV (modifications not checked) […], the peptide exchange yield lay in the range of 20 to 50%.
